Ends that are not written are not given here.
T1: SMG5–7 TPR complex (heterodimer of SMG5 TPR and SMG7 TPR) (human, UniProt Q9UPR3 1-803; Q92540 1-499, Δ408–632)
T1 construct: SMG5, human, residues 1–803 with the predicted insertion 408–632 removed (SMG5 TPR); SMG7, human, residues 1–499 (SMG7 TPR); Written SMG5-His and His-(TEV)-SMG7 in the methods; also called SMG5–SMG7; SMG5–7 TPR heterodimer; not shown: His, N-terminal, cleaved; copies: 1 + 1
T1 sequence (looked up) 1: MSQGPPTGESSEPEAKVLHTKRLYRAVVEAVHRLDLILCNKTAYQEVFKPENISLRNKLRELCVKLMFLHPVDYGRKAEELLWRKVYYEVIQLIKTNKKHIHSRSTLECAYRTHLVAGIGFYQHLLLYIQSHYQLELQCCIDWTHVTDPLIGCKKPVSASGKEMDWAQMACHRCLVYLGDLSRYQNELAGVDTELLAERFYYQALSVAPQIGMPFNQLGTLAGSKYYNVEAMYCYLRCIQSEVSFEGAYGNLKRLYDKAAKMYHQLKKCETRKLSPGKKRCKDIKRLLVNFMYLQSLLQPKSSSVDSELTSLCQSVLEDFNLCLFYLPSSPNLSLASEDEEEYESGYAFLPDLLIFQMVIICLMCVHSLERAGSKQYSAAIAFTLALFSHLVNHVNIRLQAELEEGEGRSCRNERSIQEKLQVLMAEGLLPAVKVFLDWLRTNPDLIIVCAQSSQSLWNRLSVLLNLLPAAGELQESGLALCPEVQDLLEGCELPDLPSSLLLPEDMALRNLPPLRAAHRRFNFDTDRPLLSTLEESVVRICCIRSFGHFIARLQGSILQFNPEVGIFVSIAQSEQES
T1 sequence (looked up) 2: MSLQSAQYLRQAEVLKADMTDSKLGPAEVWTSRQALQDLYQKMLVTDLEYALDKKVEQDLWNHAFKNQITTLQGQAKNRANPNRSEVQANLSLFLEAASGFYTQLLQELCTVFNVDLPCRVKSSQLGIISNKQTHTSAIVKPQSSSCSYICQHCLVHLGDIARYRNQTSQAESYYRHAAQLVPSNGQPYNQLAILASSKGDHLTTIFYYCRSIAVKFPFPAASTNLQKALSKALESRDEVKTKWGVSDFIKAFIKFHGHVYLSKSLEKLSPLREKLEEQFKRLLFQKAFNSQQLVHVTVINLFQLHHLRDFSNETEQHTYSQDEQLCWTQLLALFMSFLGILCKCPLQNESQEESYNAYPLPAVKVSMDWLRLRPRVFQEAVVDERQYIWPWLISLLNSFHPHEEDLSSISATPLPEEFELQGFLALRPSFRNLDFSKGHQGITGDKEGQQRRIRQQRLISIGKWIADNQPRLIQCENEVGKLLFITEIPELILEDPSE

B1: GST-UPF1CT1 (residues 1052–1118) phosphorylated in vitro by SMG1 wt (domain or fragment, human, UniProt Q92900-2 1052-1118, looked up)
chain: {GST}-GALTQGYISMSQPSQMSQPGLSQPELSQDSYLGDEFKSQIDVALSQDSTYQGERAYQHGGVTGLSQY
modifications: also: phosphorylated in vitro by SMG1 at SQ motifs, sites not given here
notes: source: E. coli, purified, then phosphorylated in vitro with SMG1 wt
B2: GST-UPF1CT4 (residues 1086–1118) phosphorylated in vitro by SMG1 wt (domain or fragment, human, UniProt Q92900-2 1086-1118, looked up)
chain: {GST}-EFKSQIDVALSQDSTYQGERAYQHGGVTGLSQY
modifications: also: phosphorylated in vitro by SMG1 at SQ motifs, sites not given here
notes: as for B1
B3: GST-UPF1CT (residues 917–1118) phosphorylated in vitro by SMG1 wt (domain or fragment, human, UniProt Q92900-2 917-1118, looked up)
chain: RKLVNTINPGARFMTTAMYDAREAIIPGSVYDRSSQGRPSSMYFQTHDQIGMISAGPSHVAAMNIPIPFNLVMPPMPPPGYFGQANGPAAGRGTPKGKTGRGGRQKNRFGLPGPSQTNLPNSQASQDVASQPFSQGALTQGYISMSQPSQMSQPGLSQPELSQDSYLGDEFKSQIDVALSQDSTYQGERAYQHGGVTGLSQY
modifications: phosphorylated in vitro by SMG1 at SQ motifs; sites not stated for this construct
notes: also called C-terminal tail of UPF1; source: E. coli BL21 (DE3) STAR pRARE, purified, then phosphorylated in vitro with SMG1 wt
B4: GST-UPF1fl, unphosphorylated (mock-treated with SMG1 KD or not treated) (natural protein, human, UniProt Q92900-2 1-1118, looked up)
chain: MSVEAYGPSSQTLTFLDTEEAELLGADTQGSEFEFTDFTLPSQTQTPPGGPGGPGGGGAGGPGGAGAGAAAGQLDAQVGPEGILQNGAVDDSVAKTSQLLAELNFEEDEEDTYYTKDLPIHACSYCGIHDPACVVYCNTSKKWFCNGRGNTSGSHIVNHLVRAKCKEVTLHKDGPLGETVLECYNCGCRNVFLLGFIPAKADSVVVLLCRQPCASQSSLKDINWDSSQWQPLIQDRCFLSWLVKIPSEQEQLRARQITAQQINKLEELWKENPSATLEDLEKPGVDEEPQHVLLRYEDAYQYQNIFGPLVKLEADYDKKLKESQTQDNITVRWDLGLNKKRIAYFTLPKTDSDMRLMQGDEICLRYKGDLAPLWKGIGHVIKVPDNYGDEIAIELRSSVGAPVEVTHNFQVDFVWKSTSFDRMQSALKTFAVDETSVSGYIYHKLLGHEVEDVIIKCQLPKRFTAQGLPDLNHSQVYAVKTVLQRPLSLIQGPPGTGKTVTSATIVYHLARQGNGPVLVCAPSNIAVDQLTEKIHQTGLKVVRLCAKSREAIDSPVSFLALHNQIRNMDSMPELQKLQQLKDETGELSSADEKRYRALKRTAERELLMNADVICCTCVGAGDPRLAKMQFRSILIDESTQATEPECMVPVVLGAKQLILVGDHCQLGPVVMCKKAAKAGLSQSLFERLVVLGIRPIRLQVQYRMHPALSAFPSNIFYEGSLQNGVTAADRVKKGFDFQWPQPDKPMFFYVTQGQEEIASSGTSYLNRTEAANVEKITTKLLKAGAKPDQIGIITPYEGQRSYLVQYMQFSGSLHTKLYQEVEIASVDAFQGREKDFIILSCVRANEHQGIGFLNDPRRLNVALTRARYGVIIVGNPKALSKQPLWNHLLNYYKEQKVLVEGPLNNLRESLMQFSKPRKLVNTINPGARFMTTAMYDAREAIIPGSVYDRSSQGRPSSMYFQTHDQIGMISAGPSHVAAMNIPIPFNLVMPPMPPPGYFGQANGPAAGRGTPKGKTGRGGRQKNRFGLPGPSQTNLPNSQASQDVASQPFSQGALTQGYISMSQPSQMSQPGLSQPELSQDSYLGDEFKSQIDVALSQDSTYQGERAYQHGGVTGLSQY
notes: UPF1, human; also called full-length GST-UPF1; unphosphorylated UPF1
B5: GST-UPF1fl phosphorylated in vitro by SMG1 wt (natural protein, human, UniProt Q92900-2 1-1118, looked up)
chain: B4 chain
modifications: phosphorylated by SMG1 at SQ and TQ motifs present exclusively in the N- and C-terminal tails; detected sites include Thr28, Ser1078, Ser1096 and Ser1116
notes: UPF1, human; also called phospho-UPF1; phospho-UPF1fl
B6: GST-UPF1CT2 (residues 1070–1118) phosphorylated in vitro by SMG1 wt (domain or fragment, human, UniProt Q92900-2 1070-1118, looked up)
chain: PGLSQPELSQDSYLGDEFKSQIDVALSQDSTYQGERAYQHGGVTGLSQY
modifications: not fully specified (N-terminus); also: phosphorylated in vitro by SMG1, sites not given here, GST fusion partner not in chain
notes: as for B1

What was measured:
[1] = biological target: T1, SMG5–7 TPR complex (heterodimer of SMG5 …); assay: pull-down; GST pull-down, one prey: ∼2 μg GST-tagged bait with equal amount of untagged prey in 20 mM HEPES pH 7.5, 125 mM NaCl, 2% glycerol, 2 mM DTT (45 μl), 45 min at room temperature; glutathione–Sepharose beads in 20 mM HEPES pH 7.5, 150 mM NaCl, 10% glycerol, 2 mM DTT, 0.1% NP-40, 1 h at 4°C; eluted with glutathione; SDS-PAGE, Coomassie; GST-UPF1 constructs pre-treated with SMG1 wt or SMG1 KD where indicated; conditions: both partners purified
[2] = biological target: T2, SMG6fl (HA-Flag tagged, purified from HEK 293T cells) (human, UniProt Q86US8 1-1419); assay: pull-down; GST pull-down as in Figure 1C with GST-UPF1fl as bait and several preys added together (SMG6fl, UPF2, UPF3, EJC; or SMG6fl and SMG5–7 TPR after treatment with SMG1 wt or KD); Coomassie; conditions: both partners purified
T2 construct: SMG6, human, full length (SMG6CT ends at residue 1419)
T2 sequence (Q86US8 whole entry): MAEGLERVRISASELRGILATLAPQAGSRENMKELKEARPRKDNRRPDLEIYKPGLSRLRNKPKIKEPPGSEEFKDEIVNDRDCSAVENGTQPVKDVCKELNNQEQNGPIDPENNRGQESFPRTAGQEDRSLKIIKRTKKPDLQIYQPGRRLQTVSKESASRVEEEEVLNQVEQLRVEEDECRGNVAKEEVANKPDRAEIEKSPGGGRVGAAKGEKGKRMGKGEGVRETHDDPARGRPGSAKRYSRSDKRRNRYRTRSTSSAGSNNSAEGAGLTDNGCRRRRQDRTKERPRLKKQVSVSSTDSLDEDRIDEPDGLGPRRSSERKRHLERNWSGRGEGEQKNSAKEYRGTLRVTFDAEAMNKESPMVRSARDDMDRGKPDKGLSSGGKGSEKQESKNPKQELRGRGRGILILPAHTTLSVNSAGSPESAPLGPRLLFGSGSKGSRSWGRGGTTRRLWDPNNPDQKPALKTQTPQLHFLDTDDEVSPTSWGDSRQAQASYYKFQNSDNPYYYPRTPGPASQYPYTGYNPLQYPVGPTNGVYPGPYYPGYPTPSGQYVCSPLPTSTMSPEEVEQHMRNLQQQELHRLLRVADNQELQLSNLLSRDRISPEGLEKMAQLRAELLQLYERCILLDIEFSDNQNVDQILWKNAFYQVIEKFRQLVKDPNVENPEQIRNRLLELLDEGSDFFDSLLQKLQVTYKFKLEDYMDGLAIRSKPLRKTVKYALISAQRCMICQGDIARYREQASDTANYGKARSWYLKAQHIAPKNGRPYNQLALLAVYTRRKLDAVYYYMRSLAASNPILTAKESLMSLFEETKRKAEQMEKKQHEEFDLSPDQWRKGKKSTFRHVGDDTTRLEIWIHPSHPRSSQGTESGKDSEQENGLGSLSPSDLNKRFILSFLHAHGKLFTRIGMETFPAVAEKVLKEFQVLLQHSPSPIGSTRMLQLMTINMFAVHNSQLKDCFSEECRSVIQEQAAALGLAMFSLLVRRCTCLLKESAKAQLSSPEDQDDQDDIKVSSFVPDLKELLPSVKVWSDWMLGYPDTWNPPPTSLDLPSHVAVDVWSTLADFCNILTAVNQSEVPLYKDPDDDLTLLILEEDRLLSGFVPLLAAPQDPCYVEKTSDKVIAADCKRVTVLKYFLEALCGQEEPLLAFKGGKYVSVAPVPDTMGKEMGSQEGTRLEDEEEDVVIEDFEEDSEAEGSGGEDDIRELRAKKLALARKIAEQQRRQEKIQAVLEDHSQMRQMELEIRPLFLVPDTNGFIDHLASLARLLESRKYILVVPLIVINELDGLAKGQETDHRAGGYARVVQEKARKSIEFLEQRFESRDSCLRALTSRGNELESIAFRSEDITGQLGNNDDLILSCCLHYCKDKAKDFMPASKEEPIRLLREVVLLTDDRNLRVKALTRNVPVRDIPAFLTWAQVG

| binding result [1] | binding result [2] | Binder |
| --- | --- | --- |
| binds |  | B1 |
| binds |  | B2 |
| binds |  | B3 |
|  | binds | B4 |
|  | binds | B5 |
| binds |  | B6 |
